# Laboratory results published in patent publication US8840891 (RSR, dated 2014).
# Key:
# [1] = target: human TSHR (wild type) expressed in CHO cells (human) (UniProt P16473); assay: cell-based or functional assay
# [2] = target: human TSHR, wild type, expressed on CHO cells (human) (UniProt P16473); assay: cell-based or functional assay
# [3] = target: human TSHR, wild type, expressed on CHO cells (human) (UniProt P16473); assay: cell-based or functional assay; remark: listed apart in the source
# [4] = target: T1, TSHR coated onto tubes (human, UniProt P16473 21-764, limits assumed); assay: TSHR coated tubes, competitor 125I-M22 IgG
# T1 construct: whole entry named; also called TSHR coated tubes; thyrotropin receptor
# [5] = target: T1, TSHR coated onto tubes; assay: TSHR coated tubes, competitor 125I-TSH
# [6] = target: T1, TSHR coated onto tubes; assay: TSHR coated tubes, competitor 125I-5C9 IgG
molecule,measurement,setting,value
5C9 F(ab′)2,cyclic AMP; Example 1; 5C9 F(ab′)2 10 µg/mL + TSH (fmol/cell well),[1],916
same,cyclic AMP; Example 1; 5C9 F(ab′)2 100 µg/mL + TSH (fmol/cell well),[1],877
same,cyclic AMP; Example 1; 5C9 F(ab′)2 100 µg/mL only (fmol/cell well),[1],204
same,cyclic AMP; Example 2; 5C9 F(ab′)2 10 µg/mL + TSH (fmol/cell well),[1],1330
same,cyclic AMP; Example 2; 5C9 F(ab′)2 100 µg/mL + TSH (fmol/cell well),[1],1060
same,cyclic AMP; Example 2; 5C9 F(ab′)2 100 µg/mL only (fmol/cell well),[1],414
native human TSH (NIBSC reference preparation 81/565) (from UniProt P01215 25-116; P01222 21-132) (ligand),cyclic AMP; Exp 1; native human TSH 100 ng/mL only,[2],36.1 pmol/mL
same,cyclic AMP; Exp 2; native human TSH 100 ng/mL only,[2],40.8 pmol/mL
same,cyclic AMP; Exp 3; native human TSH 100 ng/mL only,[2],31.1 pmol/mL
M22 Fab,cyclic AMP; Exp 1; M22 3 ng/mL,[3],49.1 pmol/mL
same,cyclic AMP; Exp 2; M22 3 ng/mL,[3],68.3 pmol/mL
same,cyclic AMP; Exp 3; M22 0.3 ng/mL,[3],21.8 pmol/mL
same,cyclic AMP; Exp 4; M22 0.3 ng/mL,[3],31.1 pmol/mL
same,cyclic AMP production; M22 Fab 3 ng/mL only (fmol/cell well),[1],9430
recombinant human TSH (NIBSC reference preparation 94/674) (from UniProt P01215 25-116; P01222 21-138) (ligand),cyclic AMP; Exp 1; recombinant human TSH 100 ng/mL only,[2],12.7 pmol/mL
same,cyclic AMP; Exp 2; recombinant human TSH 100 ng/mL only,[2],16.7 pmol/mL
same,cyclic AMP; Exp 3; recombinant human TSH 100 ng/mL only,[2],26.4 pmol/mL
"14D3 IgG (antibody, V domains shown) VH: DVQMQQPGPELVKPGASLKMSCKASGYSFTGYNMHWVKQSHGKSLEWIGYIDPYSGATSYNQKFEGKATLTVDKSSSTAYMQLNSLTSEDSAVYYCARRWDWDPYAMDYWGQGTSVTVSS VL: NILMTQSPAILSVSPGERVSFACRASQSIGTSIHWYQQRTNGSPRLLIKYASESISGIPSRFSGSGSGTDFTLSINSVESEDIADYYCQQTNRWPLTFGAGTKLELKR",% inhib of 125I-M22 IgG binding at 0.01 µg/mL,[4],3%
same,% inhib of 125I-M22 IgG binding at 0.1 µg/mL,[4],15%
same,% inhib of 125I-M22 IgG binding at 1 µg/mL,[4],37%
same,% inhib of 125I-M22 IgG binding at 10 µg/mL,[4],60%
same,% inhib of 125I-M22 IgG binding at 100 µg/mL,[4],62%
same,% inhib of 125I-TSH binding at 0.01 µg/mL,[5],4%
same,% inhib of 125I-TSH binding at 0.1 µg/mL,[5],12.5%
same,% inhib of 125I-TSH binding at 1 µg/mL,[5],37%
same,% inhib of 125I-TSH binding at 10 µg/mL,[5],52%
same,% inhib of 125I-TSH binding at 100 µg/mL,[5],57%
same,% inhib of 125I-5C9 IgG binding at 0.01 µg/mL,[6],1%
same,% inhib of 125I-5C9 IgG binding at 0.1 µg/mL,[6],10%
same,% inhib of 125I-5C9 IgG binding at 1 µg/mL,[6],35%
same,% inhib of 125I-5C9 IgG binding at 10 µg/mL,[6],50.5%
same,% inhib of 125I-5C9 IgG binding at 100 µg/mL,[6],63%
